Measurements: article PMC5059719, “Tetrameric structure of the restriction DNA glycosylase R.PabI in complex with nonspecific double-stranded DNA” (Scientific Reports, 2016)
Substitutions are numbered along the chain they refer to. Names may count otherwise. One block for each binder: values may come before it.

Experiments:
[1] = target: R.PabI Y68F R70D mutant, residues 8-226 (Pyrococcus abyssi) (UniProt Q9V2B6)
[2] = target: the molecule itself; assay: cell-based or functional assay
[3] = target: R.PabI Y68F R70D D71R mutant, residues 8-226 (Pyrococcus abyssi) (UniProt Q9V2B6)
[4] = target: the molecule itself; assay: crystal structure; R.PabI R32A E63A dimer co-crystallised with 20 bp blunt-ended nonspecific dsDNA (dsDNA:dimer 1:2) in 10 mM MES pH 6.0, 100 mM NaCl; sitting drop, 20 °C; one dimer in the asymmetric unit, tetramer = two dimers related by the crystallographic two-fold axis, sandwiching the dsDNA

DNA glycosylase activity relative to the Y68F control, 24 bp dsDNA substrate [1]: 127%
DNA glycosylase activity relative to the Y68F control, 500 bp dsDNA substrate [1]: 76%
DNA glycosylase activity relative to the Y68F control, 3000 bp dsDNA substrate [1]: 19%
B1: R.PabI Y68F R70D mutant, residues 8-226 (enzyme)
chain: EASVSFENGKIVVRLPITRPTSKIRVKKIENGVGIPVSTRKKSFPSDENLRDYYIEWQISFADDGKYDYELSRMVRLAHEHGILTYNDIYELLKFADDVKSYLEDKGIRRESTNEELYGFNIYEDVYPVAKKELPSGEFIGIVLKHKQRAVGYQSMVYVCIPLTNVEPSLAGRVARRNEVVKYEVPVDLMKELLKAFIIASETHKNDIVKFLRSIIGTS

B2: R.PabI Y68F D71R mutant, residues 8-226 (enzyme, Pyrococcus abyssi, UniProt Q9V2B6 8-226, looked up)
chain: B1 chain with D63R, D64R
DNA glycosylase activity relative to the Y68F control, 24 bp dsDNA substrate [2]: 74%
DNA glycosylase activity relative to the Y68F control, 500 bp dsDNA substrate [2]: 34%
DNA glycosylase activity relative to the Y68F control, 3000 bp dsDNA substrate [2]: 19%

DNA glycosylase activity relative to the Y68F control, 24 bp dsDNA substrate [3]: 105%
DNA glycosylase activity relative to the Y68F control, 500 bp dsDNA substrate [3]: 71%
DNA glycosylase activity relative to the Y68F control, 3000 bp dsDNA substrate [3]: 40%
B3: R.PabI Y68F R70D D71R mutant, residues 8-226 (enzyme)
chain: B1 chain with D64R

B4: R.PabI R32A E63A double mutant, residues 8-226 (enzyme, Pyrococcus abyssi, UniProt Q9V2B6 8-226, looked up)
chain: B1 chain with R25A, E56A, F61Y, D63R
notes: R.PabI, type II restriction enzyme (restriction DNA glycosylase) of Pyrococcus abyssi, residues 8-226, with R32A and E63A; Cloned into the NdeI-BamHI site of pET26b; also called protomers A and B; source: E. coli Rosetta(DE3)pLysS, purified (heat treatment, heparin column, MonoS)
stoichiometry N [4]: 2
